Data taken from doi:10.1101/2022.02.05.479199.
Numbering of substitutions follows the chain as printed.

B1: Rtt105^Cy5 (natural protein)
chain: MYSNHNLNSDDCSFDWNEEKAAELQRTGVSFDRSLTPQSLRTSTRRLSEENKQQSGTMHIDTSPSVVSDIISSRRDRSQDFFGPHSSSPIAPSERQRADQRSRLESMRLTRRRDKMTKVRGGLEKMEEMIMQGEHLREMQRLKQEAQKNALPSDMAEYMEWQNNEDLEDDELLAFIEKQETYKNELEHFLNNANKNVYENNSYPNSHT
modifications: Cy5 (maleimide) on Cys-12
B2: Regulator of Ty1 Transposition 105 (Rtt105) (natural protein)
chain: B1 chain with S13C

Assays:
[1] = molecular target: RPA-DBD-A^Cy3 (S. cerevisiae) (UniProt P22336); experiment: FRET or BRET
[2] = molecular target: RPA-DBD-D^Cy3 (S. cerevisiae) (UniProt P22336); experiment: FRET or BRET
[3] = molecular target: RPA-DBD-D^MB543 (S. cerevisiae) (UniProt P22336); experiment: C-trap optical tweezers with confocal fluorescence
[4] = molecular target: F-A-B-DBD-A^MB543 (S. cerevisiae); experiment: other fluorescence titration
[5] = molecular target: RPA-DBD-A^MB543 (S. cerevisiae) (UniProt P22336); experiment: other fluorescence titration

Row | Binder | kobs (single exponential model) [1] [s⁻¹] | kobs (single-step model) [1] [s⁻¹] | kobs,1 (two-step model) [2] [s⁻¹] | kobs,2 (two-step model) [2] [s⁻¹] | t1/2 of dissociation [3] [s] | Kd [4] [nM] | Kd [5] [nM]
1 | B1 | 0.62 | 0.2 | 3.5 | 0.2 | 5 | – | –
2 | B2 | – | – | – | – | – | 33.9 | 61.1
